Values joined by “and” are separate entries in the source; they are usually repeats but may differ in a detail not shown here. Equal values may be shown once.
B1: Fatty acid-binding protein, intestinal, P02693 (parent)
chain: MAFDGTWKVDRNENYEKFMEKMGINVVKRKLGAHDNLKLTITQEGNKFTVKESSNFRNIDVVFELGVDFAYSLADGTELTGTWTMEGNKLVGKFKRVDNGKELIAVREISGNELIQTYTYEGVEAKRIFKKE

Variants of: B1
Conditions: Rattus norvegicus; pH 7; 25 °C; Urea; Fluorescence; NaPO4 25 mM; NaCl 75 mM; structure 1IFB; whole UniProt chain shown

| Variant | ddG of mutation (higher = less stable) [kcal/mol] | denaturant m value | denaturant midpoint (higher = more stable) | unfolding free energy |
| --- | --- | --- | --- | --- |
| W83Y | -0.09 | 1.38 kcal/mol/M and 1.1 kcal/mol/M | 3.54 M and 3.6 M | 4.88 kcal/mol and 3.99 kcal/mol |
| F69A | -1.38 | 1.76 kcal/mol/M | 3.52 M | 6.17 kcal/mol |
| W7Y | 0.93 | 1.09 kcal/mol/M and 0.77 kcal/mol/M | 3.52 M and 3.8 M | 3.86 kcal/mol and 2.93 kcal/mol |
| F94A | 2.42 | 1.3 kcal/mol/M and 0.77 kcal/mol/M | 1.83 M and 2.53 M | 2.37 kcal/mol and 1.94 kcal/mol |

Source: FireProtDB (doi:10.1021/bi052091o)
